Data taken from patent US7972815B2, “Method of producing sugar chain using human G4 polypeptide” (Kyowa Hakko Kirin Co., Ltd., priority 1999, dated 2011).
Changes are numbered by the printed parent chain. Each block holds one molecule with its values, some of them ahead of it.

Legend:
[1] = β1,3-N-acetylglucosaminyl transferase activity in cell extract of stable transformants (Example 8); type: biochemical, human; details: cell extract of Namalwa KJM-1 transformed by expression plasmid; 50 μM pyridylaminated LNnT; 37° C., 16 hours; control plasmid cells 1.8%
Experimental: The β1,3-N-acetylglucosaminyl transferase activity was examined by using a cell extract of stable transformants which were transformed by a plasmid capable of expressing G3, G4, G4-2 or G7 polypeptide obtained in Example 7.
The transformed cells (about 2×10^7) were transferred into a microtube (1.5 ml: manufactured by Eppendorf) and centrifuged (550×g for 7 minutes) to collect the cells. The cells were washed with 0.9 ml of PBS, the washed cells were suspended in a solution […] composed of 20 mmol/l HEPES (pH 7.2) and 1% Triton X-100 and then the cells were disrupted by a sonicator (Bioruptor; manufactured by Cosmo Bio). After standing at 4° C. for 1 hour, a supernatant was obtained by centrifugation (550×g for 7 minutes). The supernatant was used as an enzyme sample. The β1,3-N-acetylglucosaminyl transferase activity was measured by using this enzyme sample.
Preparation of a pyridylaminated sugar chain substrates and activity measurement were carried out in accordance with known methods [Japanese Published Unexamined Patent Application No. 181757/94, Japanese Published Unexamined Patent Application No. 823021/94, J. Biol. Chem., 269, 14730 (1994), J. Biol. Chem., 267, 2994 (1992)].
(§1) Specifically, the reaction was carried out at 37° C. for 16 hours in 30 μl of an assay solution [200 mmol/l of MOPS (pH 7.5), 50 mmol/l of UDP-GlcNAc (SIGMA), 20 mmol/l of MnCl2, 0.3% Triton X-100, 50 μM of a pyridylaminated sugar chain substrate and 10 μl of the above cell lysate], and then products were detected by a high performance liquid chromatography (HPLC).
As a substrate, lacto-N-neotetraose (Galβ1-4GlcNAcβ1-3Galβ1-4Glc; hereinafter referred to as “LNnT”) fluorescence-labeled with aminopyridine was used. […]
(§2) Products were detected by using a fluorescence spectrum photometer FP-920 (JASCO Corporation) (excitation wavelength 320 nm, radiation wavelength 400 nm). […]
(§3) The amount of products was measured by using pyridylaminated lactose as a standard and comparing their fluorescence intensity.

[2] = β1,3-N-acetylglucosaminyl transferase activity of secreted FLAG peptide-fused polypeptides (method of Example 8); type: biochemical, human
Experimental: as §1
As a substrate, lacto-N-neotetraose (Galβ1-4GlcNAcβ1-3Galβ1-4Glc; hereinafter referred to as “LNnT”) fluorescence-labeled with aminopyridine was used.
After carrying out the reaction by using the assay solution with or without UDP-GlcNAc (sugar donor), HPLC was carried out and peaks appeared only in the assay solution containing UDP-GlcNAc were defined as products.
The assay solution after completion of the reaction was treated at 100° C. for 5 minutes and then centrifuged at 10,000×g for 5 minutes, and a portion (5 μl) of the thus obtained supernatant was applied to HPLC.
The HPLC was carried out by using TSK-gel ODS-80Ts column (4.6×300 mm; Tosoh); 0.02 M ammonium acetate buffer (pH 4.0) was used as an eluate at elution temperature 50° C. and flow rate 0.5 ml/min.
as §2, §3
A β1,3-N-acetylglucosaminyl transferase activity of FLAG peptide-fused G4 polypeptide expressed as a secreted form in Namalwa KJM-1 cell was measured by using 15 μl of the eluate prepared in the above (4). […] As a result, a β1,3-N-acetylglucosaminyl transferase activity was detected when the eluate derived from the culture supernatant of pAMoF2-G4-introduced Namalwa KJM-1 cell was used. […] On the other hand, the activity was not detected when the eluate derived from the culture supernatant of Namalwa KJM-1 cell transformed by the vector pAMoF2 was used.
A β1,3-N-acetylglucosaminyl transferase activity of FLAG peptide-fused G4 polypeptide produced as a secreted form in the insect cell was measured using 15 μl of the eluate prepared in the above (3). […] As a result, a β1,3-N-acetylglucosaminyl transferase activity was detected when the eluate derived from the culture supernatant of the insect cell transformed by pVL1393-F2G4 was used.
A β1,3-N-acetylglucosaminyl transferase activity was also detected when the resin before elution was used. […]
A β1,3-N-acetylglucosaminyl transferase activity of FLAG peptide-fused G3 polypeptide was measured by using 15 μl of the purified sample prepared in the above (3). […] As a result, a β1,3-N-acetylglucosaminyl transferase activity was detected. […]

[3] = 15 μl eluate/purified sample from insect cell (Sf21) culture supernatant

B1: G3: polypeptide containing 397 amino acids, SEQ ID NO:1; novel β1,3-N-acetylglucosaminyl transferase (protein, listed as Homo sapiens)
chain: MSVGRRRIKLLGILMMANVFIYFIMEVSKSSSQEKNGKGEVIIPKEKFWKISTPPEAYWNREQEKLNRQYNPILSMLTNQTGEAGRLSNISHLNYCEPDLRVTSVVTGFNNLPDRFKDFLLYLRCRNYSLLIDQPDKCAKKPFLLLAIKSLTPHFARRQAIRESWGQESNAGNQTVVRVFLLGQTPPEDNHPDLSDMLKFESEKHQDILMWNYRDTFFNLSLKEVLFLRWVSTSCPDTEFVFKGDDDVFVNTHHILNYLNSLSKTKAKDLFIGDVIHNAGPHRDKKLKYYIPEVVYSGLYPPYAGGGGFLYSGHLALRLYHITDQVHLYPIDDVYTGMCLQKLGLVPEKHKGFRTFDIEEKNKNNICSYVDLMLVHSRKPQEMIDIWSQLQSAHLKC
- ratio of a substrate (LNnT) converted into a product (GlcNAcβ1-3Galβ1-4GlcNAcβ1-3Galβ1-4Glc) [1]: 2.7%

B2: G4: polypeptide composed of 372 amino acids, SEQ ID NO:2; novel β1,3-N-acetylglucosaminyl transferase (protein, listed as Homo sapiens)
chain: MKYLRHRRPNATLILAIGAFTLLLFSLLVSPPTCKVQEQPPAIPEALAWPTPPTRPAPAPCHANTSMVTHPDFATQPQHVQNFLLYRHCRHFPLLQDVPPSKCAQPVFLLLVIKSSPSNYVRRELLRRTWGRERKVRGLQLRLLFLVGTASNPHEARKVNRLLELEAQTHGDILQWDFHDSFFNLTLKQVLFLQWQETRCANASFVLNGDDDVFAHTDNMVFYLQDHDPGRHLFVGQLIQNVGPIRAFWSKYYVPEVVTQNERYPPYCGGGGFLLSRFTAAALRRAAHVLDIFPIDDVFLGMCLELEGLKPASHSGIRTSGVRAPSQHLSSFDPCFYRDLLLVHRFLPYEMLLMWDALNQPNLTCGNQTQIY
- ratio of a substrate (LNnT) converted into a product (GlcNAcβ1-3Galβ1-4GlcNAcβ1-3Galβ1-4Glc) [1]: 2.8%

B3: G4-2: polypeptide containing 372 amino acids, SEQ ID NO:3; 328th amino acid Arg instead of His (protein, listed as Homo sapiens)
chain: B2 chain with H328R
- ratio of a substrate (LNnT) converted into a product (GlcNAcβ1-3Galβ1-4GlcNAcβ1-3Galβ1-4Glc) [1]: 2.8%

- ratio of the substrate converted into the product [2, 3]: 100%
B4: FLAG peptide-fused G3 polypeptide: secreted G3, 31st serine to 397th cysteine of SEQ ID NO:1, with immunoglobulin signal sequence and FLAG peptide (protein, listed as Homo sapiens)
chain: SSQEKNGKGEVIIPKEKFWKISTPPEAYWNREQEKLNRQYNPILSMLTNQTGEAGRLSNISHLNYCEPDLRVTSVVTGFNNLPDRFKDFLLYLRCRNYSLLIDQPDKCAKKPFLLLAIKSLTPHFARRQAIRESWGQESNAGNQTVVRVFLLGQTPPEDNHPDLSDMLKFESEKHQDILMWNYRDTFFNLSLKEVLFLRWVSTSCPDTEFVFKGDDDVFVNTHHILNYLNSLSKTKAKDLFIGDVIHNAGPHRDKKLKYYIPEVVYSGLYPPYAGGGGFLYSGHLALRLYHITDQVHLYPIDDVYTGMCLQKLGLVPEKHKGFRTFDIEEKNKNNICSYVDLMLVHSRKPQEMIDIWSQLQSAHLKC
modifications: Ig signal sequence and FLAG peptide

- ratio of the substrate converted into the product ([2]; 15 μl eluate from culture supernatant of pAMoF2-G4-introduced Namalwa KJM-1 cell): 0.51%
- ratio of the substrate converted into the product [2, 3]: 12.1%
- ratio of the substrate converted into the product ([2]; insect cell product, resin before elution (enzyme adsorbed to Anti-FLAG M1 Affinity Gel)): 21.0%
B5: FLAG peptide-fused G4 polypeptide: secreted G4, 38th glutamic acid to 372nd tyrosine of SEQ ID NO:2, with immunoglobulin signal sequence and FLAG peptide (protein, listed as Homo sapiens)
chain: EQPPAIPEALAWPTPPTRPAPAPCHANTSMVTHPDFATQPQHVQNFLLYRHCRHFPLLQDVPPSKCAQPVFLLLVIKSSPSNYVRRELLRRTWGRERKVRGLQLRLLFLVGTASNPHEARKVNRLLELEAQTHGDILQWDFHDSFFNLTLKQVLFLQWQETRCANASFVLNGDDDVFAHTDNMVFYLQDHDPGRHLFVGQLIQNVGPIRAFWSKYYVPEVVTQNERYPPYCGGGGFLLSRFTAAALRRAAHVLDIFPIDDVFLGMCLELEGLKPASHSGIRTSGVRAPSQHLSSFDPCFYRDLLLVHRFLPYEMLLMWDALNQPNLTCGNQTQIY
modifications: Ig signal sequence and FLAG peptide
